According to patent publication US20230270832A1, “MAGEA1 IMMUNOGENIC PEPTIDES, BINDING PROTEINS RECOGNIZING MAGEA1 IMMUNOGENIC PEPTIDES, AND USES THEREOF” (TScan Therapeutics, Inc., priority 2021, published 2023):

Test system: cell lines with low to zero MAGEA1 expression
Type: cell-based, human
Procedure: Cancer cell lines were purchased from ATCC (Manassas, Vα.) and HEK293T cells were originally from Takara Bio (Shiga, Japan). All media were supplemented with […], except U266B1 which required 15% FBS, and 1% penicillin and incubated at 37° C. in 5% CO2. A101D (high MAGE-A1 expresing cells; TPM: 359), A2058 (medium MAGE-A1 expresing cells; TPM: 128), HS294T, and HEK293T cells were maintained in complete DMEM. SK-MEL-5 was cultured in complete EMEM, whereas U266B1, NCIH1437 and 786-0 required complete RPMI. Untransduced cancer cells were maintained in preparation for the T cell recognition assay, and 10^6 cells of each cell line were introduced with Incucyte® NucLight™ Red lentivirus reagent (Sartorius, Gottingen, Germany) Positively-labeled cells were selected using 1.5 ug/mL of puromycin over 72 hours.
Cancer cells selected for Incucyte® NucLight™ analysis were seeded into 96-well flat bottom plates (Corning, Flintshire, UK) at 10^4 cells. On the same day, T cells were thawed, washed in complete RPMI-1640, and allowed to rest overnight in medium with 50 U/mL IL-2 (PeproTech), 5 ng/mL IL-7, and 5 ng/mL IL-15 (R&D Systems). All cells were rested overnight at 37° C. in 5% CO2. […] Imaging utilized a 4x objective lens and data were analyzed using the Incucyte® Basic Software. […]

B1: TCR 32-41: T cell receptor recognizing MAGEA1 epitope presented by HLA-C*07:02; alpha TRAV27/TRAJ52, beta TRBV12-4/TRBJ1-4; wild type, HM and MGTM sequences listed (protein)
TCR alpha: QLLEQSPQFLSIQEGENLTVYCNSSSVFSSLQWYRQEPGEGPVLLVTVVTGGEVKKLKRLTFQFGDARKDSSLHITAAQPGDTGLYLCAGDESISYGKLTFGQGTILTVHPNIQNPEPAVYQLKDPRSQDSTLCLFTDFDSQINVPKTMESGTFITDKCVLDMKAMDSKSNGAIAWSNQTSFTCQDIFKETNATYPSSDVPCDATLTEKSFETDMNLNFQNLLVMVLRILLLKVAGFNLLMTLRLWSS
TCR beta: DAGVIQSPRHEVTEMGQEVTLRCKPISGHDYLFWYRQTMMRGLELLIYFNNNVPIDDSGMPEDRFSAKMPNASFSTLKIQPSEPRDSAVYFCASSFLGWNEKLFFGSGTQLSVLEDLRNVTPPKVSLFEPSKAEIANKQKATLVCLARGFFPDHVELSWWVNGKEVHSGVCTDPQAYKESNYSYCLSSRLRVSATFWHNPRNHFRCQVQFHGLSEEDKWPEGSPKPVTQNISAEAWGRADCGITSASYQQGVLSATILYEILLGKATLYAVLVSTLVVMAMVKRKNS
cytotoxic activity (killing) on cell lines with low to zero MAGEA1: does not kill cell lines with low to zero MAGEA1 expression
